Data as given in article doi:10.1101/2022.02.07.479471 (bioRxiv, 2022).

Biological target: SARS-CoV-2 nsp12 (RNA-dependent RNA polymerase with N-terminal NiRAN domain) (SARS-CoV-2, UniProt P0DTD1)
Test: cryo-EM structure

B1: SARS-CoV-2 nsp9 with native N-terminus (natural protein)
chain: NNELSPVALRQMSCAAGTTQTACTDDNALAYYNTTKGGRFVLALLSDLQDLKWARFPKSDGTGTIYTELEPPCRFVTDTPKGPKVKYLYFIKGLNNLNRGMVLGSLAATVRLQ
binding result: binds
